Reference: PMC7810697, “Sarcolipin alters SERCA1a interdomain communication by impairing binding of both calcium and ATP” (Scientific Reports, 2021)

Tests used:
[1] = biological target: native SERCA1a in DDM-solubilized rabbit sarco-endoplasmic reticulum membranes (rabbit) (UniProt P04191)
[2] = biological target: recombinant wild-type rabbit SERCA1a (sarco-endoplasmic reticulum Ca2+-ATPase, isoform 1a) expressed in S. cerevisiae (rabbit) (UniProt P04191)
[3] = biological target: native SERCA1a in DDM-solubilized rabbit sarco-endoplasmic reticulum membranes (rabbit) (UniProt P04191); remark: listed apart in the source
[4] = biological target: recombinant wild-type rabbit SERCA1a (sarco-endoplasmic reticulum Ca2+-ATPase, isoform 1a) expressed in S. cerevisiae (rabbit) (UniProt P04191); remark: listed apart in the source

Chain of recombinant wild-type rabbit SERCA1a (sarco-endoplasmic reticulum Ca2+-ATPase, isoform 1a) expressed in S. cerevisiae (rabbit) (P04191 other isoform, or with tags, fused parts or gaps): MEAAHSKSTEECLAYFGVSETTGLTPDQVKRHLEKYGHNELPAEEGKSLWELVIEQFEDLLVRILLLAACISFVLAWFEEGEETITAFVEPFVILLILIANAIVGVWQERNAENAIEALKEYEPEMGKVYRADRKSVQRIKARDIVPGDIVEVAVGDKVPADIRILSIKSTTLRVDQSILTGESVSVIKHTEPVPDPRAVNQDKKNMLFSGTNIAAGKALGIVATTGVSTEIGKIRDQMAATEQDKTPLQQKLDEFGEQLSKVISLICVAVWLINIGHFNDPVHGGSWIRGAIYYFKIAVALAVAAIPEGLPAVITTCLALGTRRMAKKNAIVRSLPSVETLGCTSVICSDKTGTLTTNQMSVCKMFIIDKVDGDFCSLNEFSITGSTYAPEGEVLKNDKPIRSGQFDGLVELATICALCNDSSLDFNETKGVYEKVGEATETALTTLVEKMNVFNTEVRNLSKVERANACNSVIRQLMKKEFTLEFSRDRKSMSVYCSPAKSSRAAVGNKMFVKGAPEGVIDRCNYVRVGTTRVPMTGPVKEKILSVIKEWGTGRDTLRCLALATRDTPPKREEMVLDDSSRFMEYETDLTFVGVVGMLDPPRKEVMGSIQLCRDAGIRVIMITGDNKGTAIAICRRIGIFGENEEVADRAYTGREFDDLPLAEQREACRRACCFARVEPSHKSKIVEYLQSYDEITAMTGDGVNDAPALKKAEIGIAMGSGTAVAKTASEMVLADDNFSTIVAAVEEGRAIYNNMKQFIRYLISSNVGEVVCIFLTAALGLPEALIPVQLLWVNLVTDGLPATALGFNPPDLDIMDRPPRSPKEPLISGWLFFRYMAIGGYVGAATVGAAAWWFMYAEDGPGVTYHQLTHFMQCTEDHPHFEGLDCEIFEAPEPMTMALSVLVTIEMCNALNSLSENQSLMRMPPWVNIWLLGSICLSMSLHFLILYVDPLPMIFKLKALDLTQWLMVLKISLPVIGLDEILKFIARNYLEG
Chain of native SERCA1a in DDM-solubilized rabbit sarco-endoplasmic reticulum membranes (rabbit) (P04191 other isoform, or with tags, fused parts or gaps): as above

SLN:SERCA1a ratio at half-inhibition of the phosphoenzyme level (ratios 1:1 to 1:50) (mol SLN added per mole of SERCA1a) [1]	amplitude of the inhibition of the phosphoenzyme level (dose-response fit) [1] [%]	SLN:SERCA1a ratio at half-inhibition of the phosphoenzyme level (ratios 1:1 to 1:50) (mol SLN added per mole of SERCA1a) [2]	amplitude of the inhibition of the phosphoenzyme level (dose-response fit) [2] [%]	t1/2 of phosphorylation from [γ32P]ATP starting from a calcium-deprived state, Sarcolipin:SERCA1a 10:1 (6.8 without SLN) [2] [s]	IC50 of inhibition of the phosphoenzyme level, as told in the discussion (mol added SLN/mole of SERCA1a) [3]	IC50 of inhibition of the phosphoenzyme level, as told in the discussion (mol of added SLN/mole of SERCA1a) [4]	Substance
5.9	28.1	5.1	31.2	13.5	5.6	5	chemically synthesized S-palmitoylated rabbit sarcolipin (peptide)
3.1	19	4.7	28.6	13.7	2.9	4.5	chemically synthesized non-palmitoylated rabbit sarcolipin (peptide)
